Sequences and labels used below:
B1: Azoarcus group I ribozyme (parent)
chain: GUGCCUUGCGCCGGGAAACCACGCAAGGGAUGGUGUCAAAUUCGGCGAAACCUAAGCGCCCGCCCGGGCGUAUGGCAACGCCGAGCCAAGCUUCGGCGCCUGCGCCGAUGAAGGUGUAGAGACUAGACGGCACCCACCUAAGGCAAACGCUAUGGUGAAGGCAUAGUCCAGGGAGUGGCGAAAGUCACACAAACCGG

We go through 30 variants from the RNAGym collection of RNA variant scans (doi:10.1093/molbev/msab373).

This series covers variants of B1. Kind of series: reverse-splicing fitness (ratio to wild type); higher = more active; in vitro selection; Mg2+ level not given. Put shortly:
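An in vitro group I ribozyme library with randomized positions was T7-transcribed and gel-purified. In triplicate, 10 pmol RNA in EPPS pH 7.5 was reacted with 50 pmoles of a 30-nt RNA substrate for 1 h at 37 °C across several added MgCl2 levels (1–48 mM), then stopped with EDTA. Products were reverse transcribed from a substrate-complementary primer, PCR-amplified and sequenced (HiSeq 4000). Fitness is a variant's read proportion after selection over that before, normalised to wild type.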
GUGCCUUGCGCCGGGAAACCACGCAAGGGAUGGUGUCAAAUUCGGCGAAACCUAAGCGCCCGCCCGGGCGUAUGGCAACGCAGAGCCAAGCUUCGGCGCCUGCGCCGAUGAAGGUGUAGUGACUAGACGGCACCCACCUAAGGCAAACGUUAUGGUGAAGGCAUAGUCUAGGGAGGGGCGAAAGUCACACAAACCGG: the reverse-splicing fitness turned out to be 0.00199.

In the case of GUGCCUUGCGCCGGGAAACCACGCAAGGGAUGGUGUCAAAUUCGGCGAAACCUAAGCGCCCGCCCGGGCGUAUGGCAACGCAGAGCCAAGCUUCGGCGCCUGCGCCGAUGAAGGUGUAGUGACUAGACGGCACCCACCUAAGGCAAACGCUAUGGUGAAGGCAUAGUCCAGGGAGGGGCGAAAGUCACACAAACCGG, the reverse-splicing fitness came to 0.0095.

As to GUGCCUUGCGCCGGGAAACCACGCAAGGGAUGGUGUCAAAUUCGGCGAAACCUAAGCGCCCGCCCGGGCGUAUGGCAACGCAGAGCCAAGCUUCGGCGCCUGCGCCGAUGAAGGUGUAGUGACUAGACGGCACCCACCUAAGGCAAACGCUAUGGUGAAGGCAUAGUCCAGGGAGAGGCGAAAGUCACACAAACCGG, the reverse-splicing fitness came out at 0.0313. For GUGCCUUGCGCCGGGAAACCACGCAAGGGAUGGUGUCAAAUUCGGCGAAACCUAAGCGCCCGCCCGGGCGUAUGGCAACGCAGAGCCAAGCUUCGGCGCCUGCGCCGAUGAAGGUGUAGUGACUAGACGGCACCCACCUAAGGCAAACGCUAUGGUGAAGGCAUAGUCCAGGGAGCGGCGAAAGUCACACAAACCGG the value was 0.0627. As for GUGCCUUGCGCCGGGAAACCACGCAAGGGAUGGUGUCAAAUUCGGCGAAACCUAAGCGCCCGCCCGGGCGUAUGGCAACGCAGAGCCAAGCUUCGGCGCCUGCGCCGAUGAAGGUGUAGAGACUAGACGGCACCCACCUAAGGCCAACGAUAUGGUGAAGGCAUAGUCAAGGGAGAGGCGAAAGUCACACAAACCGG, the reverse-splicing fitness was determined as 0.0113. Turning to GUGCCUUGCGCCGGGAAACCACGCAAGGGAUGGUGUCAAAUUCGGCGAAACCUAAGCGCCCGCCCGGGCGUAUGGCAACGCAGAGCCAAGCUUCGGCGCCUGCGCCGAUGAAGGUGUAGAGACUAGACGGCACCCACCUAAGGCCAACGAUAUGGUGAAGGCAUAGUCAAGGGAGGGGCGAAAGUCACACAAACCGG, the reverse-splicing fitness is 0.00593. Consider GUGCCUUGCGCCGGGAAACCACGCAAGGGAUGGUGUCAAAUUCGGCGAAACCUAAGCGCCCGCCCGGGCGUAUGGCAACGCAGAGCCAAGCUUCGGCGCCUGCGCCGAUGAAGGUGUAGAGACUAGACGGCACCCACCUAAGGCCAACGAUAUGGUGAAGGCAUAGUCAAGGGAGCGGCGAAAGUCACACAAACCGG, for which the reverse-splicing fitness amounted to 0.00566.

Take GUGCCUUGCGCCGGGAAACCACGCAAGGGAUGGUGUCAAAUUCGGCGAAACCUAAGCGCCCGCCCGGGCGUAUGGCAACGCAGAGCCAAGCUUCGGCGCCUGCGCCGAUGAAGGUGUAGUGACUAGACGGCACCCACCUAAGGCAAACGUUAUGGUGAAGGCAUAGUCCAGGGAGGGGCGAAAGUCACACAAACCGG: the reverse-splicing fitness was 0.00609.

Turning to GUGCCUUGCGCCGGGAAACCACGCAAGGGAUGGUGUCAAAUUCGGCGAAACCUAAGCGCCCGCCCGGGCGUAUGGCAACGCAGAGCCAAGCUUCGGCGCCUGCGCCGAUGAAGGUGUAGUGACUAGACGGCACCCACCUAAGGCAAACGUUAUGGUGAAGGCAUAGUCCAGGGAGAGGCGAAAGUCACACAAACCGG, the reverse-splicing fitness came out at 0.0194.

Consider GUGCCUUGCGCCGGGAAACCACGCAAGGGAUGGUGUCAAAUUCGGCGAAACCUAAGCGCCCGCCCGGGCGUAUGGCAACGCAGAGCCAAGCUUCGGCGCCUGCGCCGAUGAAGGUGUAGUGACUAGACGGCACCCACCUAAGGCAAACGUUAUGGUGAAGGCAUAGUCCAGGGAGCGGCGAAAGUCACACAAACCGG, for which the reverse-splicing fitness was 0.0352.

GUGCCUUGCGCCGGGAAACCACGCAAGGGAUGGUGUCAAAUUCGGCGAAACCUAAGCGCCCGCCCGGGCGUAUGGCAACGCAGAGCCAAGCUUCGGCGCCUGCGCCGAUGAAGGUGUAGAGACUAGACGGCACCCACCUAAGGCCAACGAUAUGGUGAAGGCAUAGUCGAGGGAGAGGCGAAAGUCACACAAACCGG: the reverse-splicing fitness was determined as 0.0232. As to GUGCCUUGCGCCGGGAAACCACGCAAGGGAUGGUGUCAAAUUCGGCGAAACCUAAGCGCCCGCCCGGGCGUAUGGCAACGCAGAGCCAAGCUUCGGCGCCUGCGCCGAUGAAGGUGUAGAGACUAGACGGCACCCACCUAAGGCCAACGAUAUGGUGAAGGCAUAGUCGAGGGAGCGGCGAAAGUCACACAAACCGG, the reverse-splicing fitness is 0.0122. For GUGCCUUGCGCCGGGAAACCACGCAAGGGAUGGUGUCAAAUUCGGCGAAACCUAAGCGCCCGCCCGGGCGUAUGGCAACGCAGAGCCAAGCUUCGGCGCCUGCGCCGAUGAAGGUGUAGAGACUAGACGGCACCCACCUAAGGCCAACGAUAUGGUGAAGGCAUAGUCGAGGGAGGGGCGAAAGUCACACAAACCGG the value was 0.00671; for GUGCCUUGCGCCGGGAAACCACGCAAGGGAUGGUGUCAAAUUCGGCGAAACCUAAGCGCCCGCCCGGGCGUAUGGCAACGCAGAGCCAAGCUUCGGCGCCUGCGCCGAUGAAGGUGUAGUGACUAGACGGCACCCACCUAAGGCAAACGCUAUGGUGAAGGCAUAGUCGAGGGAGCGGCGAAAGUCACACAAACCGG, 0.00323.

On to GUGCCUUGCGCCGGGAAACCACGCAAGGGAUGGUGUCAAAUUCGGCGAAACCUAAGCGCCCGCCCGGGCGUAUGGCAACGCAGAGCCAAGCUUCGGCGCCUGCGCCGAUGAAGGUGUAGUGACUAGACGGCACCCACCUAAGGCAAACGCUAUGGUGAAGGCAUAGUCGAGGGAGAGGCGAAAGUCACACAAACCGG, for which the reverse-splicing fitness amounted to 0.00261. For GUGCCUUGCGCCGGGAAACCACGCAAGGGAUGGUGUCAAAUUCGGCGAAACCUAAGCGCCCGCCCGGGCGUAUGGCAACGCAGAGCCAAGCUUCGGCGCCUGCGCCGAUGAAGGUGUAGUGACUAGACGGCACCCACCUAAGGCAAACGCUAUGGUGAAGGCAUAGUCGAGGGAGGGGCGAAAGUCACACAAACCGG the value was 0.00153; for GUGCCUUGCGCCGGGAAACCACGCAAGGGAUGGUGUCAAAUUCGGCGAAACCUAAGCGCCCGCCCGGGCGUAUGGCAACGCAGAGCCAAGCUUCGGCGCCUGCGCCGAUGAAGGUGUAGAGACUAGACGGCACCCACCUAAGGCCAACGAUAUGGUGAAGGCAUAGUCUAGGGAGUGGCGAAAGUCACACAAACCGG, 0.00913. As for GUGCCUUGCGCCGGGAAACCACGCAAGGGAUGGUGUCAAAUUCGGCGAAACCUAAGCGCCCGCCCGGGCGUAUGGCAACGCAGAGCCAAGCUUCGGCGCCUGCGCCGAUGAAGGUGUAGAGACUAGACGGCACCCACCUAAGGCCAACGAUAUGGUGAAGGCAUAGUCAAGGGAGUGGCGAAAGUCACACAAACCGG, the figure is 0.00702.

In the case of GUGCCUUGCGCCGGGAAACCACGCAAGGGAUGGUGUCAAAUUCGGCGAAACCUAAGCGCCCGCCCGGGCGUAUGGCAACGCAGAGCCAAGCUUCGGCGCCUGCGCCGAUGAAGGUGUAGAGACUAGACGGCACCCACCUAAGGCCAACGAUAUGGUGAAGGCAUAGUCGAGGGAGUGGCGAAAGUCACACAAACCGG, the reverse-splicing fitness was 0.00755.

Consider GUGCCUUGCGCCGGGAAACCACGCAAGGGAUGGUGUCAAAUUCGGCGAAACCUAAGCGCCCGCCCGGGCGUAUGGCAACGCAGAGCCAAGCUUCGGCGCCUGCGCCGAUGAAGGUGUAGUGACUAGACGGCACCCACCUAAGGCAAACGCUAUGGUGAAGGCAUAGUCUAGGGAGGGGCGAAAGUCACACAAACCGG, for which the reverse-splicing fitness was determined as 0.00156. For GUGCCUUGCGCCGGGAAACCACGCAAGGGAUGGUGUCAAAUUCGGCGAAACCUAAGCGCCCGCCCGGGCGUAUGGCAACGCAGAGCCAAGCUUCGGCGCCUGCGCCGAUGAAGGUGUAGUGACUAGACGGCACCCACCUAAGGCAAACGCUAUGGUGAAGGCAUAGUCUAGGGAGAGGCGAAAGUCACACAAACCGG the value was 0.00359.

For GUGCCUUGCGCCGGGAAACCACGCAAGGGAUGGUGUCAAAUUCGGCGAAACCUAAGCGCCCGCCCGGGCGUAUGGCAACGCAGAGCCAAGCUUCGGCGCCUGCGCCGAUGAAGGUGUAGUGACUAGACGGCACCCACCUAAGGCAAACGCUAUGGUGAAGGCAUAGUCUAGGGAGCGGCGAAAGUCACACAAACCGG, the reverse-splicing fitness is 0.00453. As for GUGCCUUGCGCCGGGAAACCACGCAAGGGAUGGUGUCAAAUUCGGCGAAACCUAAGCGCCCGCCCGGGCGUAUGGCAACGCAGAGCCAAGCUUCGGCGCCUGCGCCGAUGAAGGUGUAGUGACUAGACGGCACCCACCUAAGGCAAACGCUAUGGUGAAGGCAUAGUCUAGGGAGUGGCGAAAGUCACACAAACCGG, the figure is 0.00613. For GUGCCUUGCGCCGGGAAACCACGCAAGGGAUGGUGUCAAAUUCGGCGAAACCUAAGCGCCCGCCCGGGCGUAUGGCAACGCAGAGCCAAGCUUCGGCGCCUGCGCCGAUGAAGGUGUAGUGACUAGACGGCACCCACCUAAGGCAAACGCUAUGGUGAAGGCAUAGUCAAGGGAGUGGCGAAAGUCACACAAACCGG the value was 0.00277.

For the variant GUGCCUUGCGCCGGGAAACCACGCAAGGGAUGGUGUCAAAUUCGGCGAAACCUAAGCGCCCGCCCGGGCGUAUGGCAACGCAGAGCCAAGCUUCGGCGCCUGCGCCGAUGAAGGUGUAGUGACUAGACGGCACCCACCUAAGGCAAACGCUAUGGUGAAGGCAUAGUCGAGGGAGUGGCGAAAGUCACACAAACCGG, the reverse-splicing fitness worked out at 0.00529. As for GUGCCUUGCGCCGGGAAACCACGCAAGGGAUGGUGUCAAAUUCGGCGAAACCUAAGCGCCCGCCCGGGCGUAUGGCAACGCAGAGCCAAGCUUCGGCGCCUGCGCCGAUGAAGGUGUAGAGACUAGACGGCACCCACCUAAGGCCAACGCUAUGGUGAAGGCAUAGUCCAGGGAGUGGCGAAAGUCACACAAACCGG, the reverse-splicing fitness was 0.586. For GUGCCUUGCGCCGGGAAACCACGCAAGGGAUGGUGUCAAAUUCGGCGAAACCUAAGCGCCCGCCCGGGCGUAUGGCAACGCAGAGCCAAGCUUCGGCGCCUGCGCCGAUGAAGGUGUAGAGACUAGACGGCACCCACCUAAGGCCAACGAUAUGGUGAAGGCAUAGUCCAGGGAGUGGCGAAAGUCACACAAACCGG the value was 0.0312; for GUGCCUUGCGCCGGGAAACCACGCAAGGGAUGGUGUCAAAUUCGGCGAAACCUAAGCGCCCGCCCGGGCGUAUGGCAACGCAGAGCCAAGCUUCGGCGCCUGCGCCGAUGAAGGUGUAGUGACUAGACGGCACCCACCUAAGGCAAACGCUAUGGUGAAGGCAUAGUCAAGGGAGAGGCGAAAGUCACACAAACCGG, 0.00254; for GUGCCUUGCGCCGGGAAACCACGCAAGGGAUGGUGUCAAAUUCGGCGAAACCUAAGCGCCCGCCCGGGCGUAUGGCAACGCAGAGCCAAGCUUCGGCGCCUGCGCCGAUGAAGGUGUAGUGACUAGACGGCACCCACCUAAGGCAAACGCUAUGGUGAAGGCAUAGUCAAGGGAGCGGCGAAAGUCACACAAACCGG, 0.00197. GUGCCUUGCGCCGGGAAACCACGCAAGGGAUGGUGUCAAAUUCGGCGAAACCUAAGCGCCCGCCCGGGCGUAUGGCAACGCAGAGCCAAGCUUCGGCGCCUGCGCCGAUGAAGGUGUAGUGACUAGACGGCACCCACCUAAGGCAAACGCUAUGGUGAAGGCAUAGUCAAGGGAGGGGCGAAAGUCACACAAACCGG: the reverse-splicing fitness was found to be 0.00137.
